According to patent US12065505B2, “Antibodies and antigen binding peptides for factor XIa inhibitors and uses thereof” (Bristol-Myers Squibb Company, priority 2021, dated 2024):
Substitutions are numbered along the chain they refer to. Like-named read-outs stand apart in the source and are kept apart here. Each block holds one molecule with its values, some of them ahead of it.

Key:
[1] = SPR (Biacore) Protein A mAb capture, Compound A injected; settings: 37° C., binding to Compound A, for rank ordering only
Procedure: The binding of hybridoma expressed 26D5 parent mAb (VH SEQ ID NO: 83 and VL SEQ ID NO: 98 in IgG1 f format)(P1-072224) and affinity matured mAbs to Compound A was examined by SPR (Biacore™) using a protein A capture method. The running buffer was 1×PBS (phosphate buffered saline, pH 7.4) with 0.05% Tween 20 and 2% DMSO. Binding experiments were carried out at 37° C. Protein A was coated on a CM5 S-series sensor chip (Cytiva, Cat. No. 29149603) at high density (2000+ RUs of protein A). The immobilization of protein A was carried out using the standard amine coupling immobilization procedure recommended by the manufacturer. The affinity matured antibody was then captured at a concentration of 2 ug/mL on the protein A surface at a flow rate of 3 uL/min for 2 minutes. Compound A was then injected over the captured antibody at concentrations spanning 100-3 nM (100, 50, 25, 12.5, 6.25, 3.125 nM) (FIG. 10) and for screening concentrations spanning 100-3 nM (100, 33, 11 nM) for 2 minutes at a flow rate of 100 uL/min and allowed to dissociate for at least 450 seconds. The chip surface was regenerated after each cycle with a 40 second pulse of 10 mM Glycine, pH 1.5. Background binding to the protein A surface alone was used to subtract non-specific binding. All experiments were run on a Biacore T200 surface plasmon resonance instrument using Biacore T200 Control software v. 2. Data analysis was performed using Biacore T200 evaluation software v 3.1. Apparent affinities were determined for rank ordering only since dissociation rates were too slow to be measured by Biacore. The names of the mAbs in Table 10 refer to mAbs having the H and L chain sequences of the corresponding Fabs in Table 3 in an IgG1f format.

[2] = Competitive TR-FRET assay modified for mAbs and Fabs (T0, T24, T48); type: binding; settings: 37° C.; for T24 hr IC50 shift: IC50 shift at 24 hr relative to T0; for T48 hr IC50 shift: IC50 shift at 48 hr relative to T0
Procedure: A competitive TR-FRET (time-resolved fluorescence resonance energy transfer) assay was developed to rank-order the dissociation of α-Compound A mAbs from Compound A as equilibrium is reached at 37° C. The assay buffer was HBS-N (10 mM HEPES, 150 mM NaCl, pH 7.4; GE Healthcare), 0.1% (w/v) BSA (bovine serum albumin; Sigma), 2% DMSO (dimethyl sulfoxide; Sigma). All reagents were prepared in assay buffer and dispensed in equal volumes into white 384 microplates with final volume of 20 μl per well at the following final concentrations: 4 nM COMPOUND 5, the biotinylated analog of COMPOUND 2, a 100 0.1 nM 7-pt titration of human α-Compound A antibodies, 0.1 nM europium-labeled α-mouse IgG (LANCE Eu-W1024; PerkinElmer), 5 nM streptavidin-D2 (Cisbio), and 4 nM mAb 26D5 VH_A10G_Y33A_S53P_M89V_G95A; VK_W32N_H38Q (P1-075621, the second-round optimization parent 26D5-295-B08 formatted with mouse IgG Fc). COMPOUND 5 and α-Compound A antibody titrations were added first to the microplate, and were subjected to an initial incubation at 37° C., 1000 rpm, for one hour to facilitate antibody binding to the compound. After the initial incubation period, the europium α-mouse IgG, streptavidin-D2, and 26D5-mouse IgG (P1-075621) were added sequentially, then the plate was returned to 37° C., 1000 rpm incubation. Microplates were read using a Perkin Elmer EnVision plate reader, and the measured FRET signal was defined as [665 nm]/[620 nm]*10,000. Microplates were read at 30 minutes (T0) and after 24 hour (T24) intervals. For each antibody titration, the FRET signal was converted to % Inhibition relative to wells without α-Compound A antibody: (100 ((FRET at [antibody concentration]/FRET at 0 nM)*100). The % inhibition antibody titrations were plotted using TIBCO Spotfire (v.7), and the IC50 was determined using a 4-parameter model curve fit. The IC50s at each timepoint were reported, as well as the IC50 curve shift relative to T0. An IC50 curve shift indicated α-Compound A antibody dissociation from the biotinylated compound as the assay reached equilibrium, which subsequently allowed 26D5-mouse IgG1 (P1-075621) competitor to bind and generate the FRET signal detected in the assay.
The competitive TR-FRET assay defined above was also modified to assess optimized 26D5 antibody progeny that were reformatted as Fabs. The α-Compound A antibody and Fab titration series were extended to 250 0.244 nM (11-pt titration), and replicates of each concentration were collected in quadruplicate. The assay incubation was extended to include an additional 48 hr timepoint to ensure equilibrium was reached, and T48 hr IC50 and IC50 shifts were reported. The % inhibition titrations were plotted in Graphpad Prism (v.8) and fit to a 4-parameter model. All other experimental setup conditions were otherwise identical to the antibody TF-FRET assay.
Competitive FRET data collected for affinity-optimized α-Compound A 26D5 progeny comparing human antibodies and Fabs are shown in FIG. 14 and Table 13. Each panel represents a single α-Compound A sequence, with antibody (mAb, solid lines, circles) and Fab (dotted lines, triangles) formats overlaid. […] The names of the mAbs/Fabs in Table 13 refer to the corresponding sequences in Tables 1-3. All mAbs listed in Table 13 were in a human IgG1f/LC kappa format.

[3] = apparent affinity, read-out: KD
[4] = read at 30 minutes (T0), competitor 26D5-mouse IgG (P1-075621), read-out: T0 IC50

B2: 26D5-296-D03-mAb: human IgG1f/kappa mAb; VH SEQ ID NO: 76, VL SEQ ID NO: 88 (antibody, V domains shown)
VH: EVQLVESGGGLIQPGGSLRLSCAASGFTVSSNYMSWVRQAPGKGLEWVSFIYSGGETFYADSVKGRFTISRDNSKNTLYLQMNSLRAEDTAVYYCARGGFGGGDYWGQGTLVTVSS
VL: DIQMTQSPSSVSASVGDRVTITCRASQGISSNLAWYQQKPGKAPKLLIYAASSLQSGVPSRFSGSGSGTDFTLTISSLQPEDFATYYCQQANSFPLTFGGGTKVEIK
Kd [1, 3]: 0.71 nM
Ka ([1]; apparent): 1.7e+06 M⁻¹ s⁻¹
Kd ([1]; apparent): 0.0012 s⁻¹

B4: P1-073708-1: 26D5 parent Fab (Fab 26D5-GV-Q); VH SEQ ID NO: 82, VL SEQ ID NO: 99 (antibody, V domains shown)
VH: B2 VH with E56R, F58Y
VL: B2 VL with N32W
IC50 ([2]; 24 hr, read-out: T24 hr IC50): > 28.2 nM
IC50 ([2]; 48 hr, read-out: T48 hr IC50): > 28.8 nM
T24 hr IC50 shift [2]: >25.7 nM
T48 hr IC50 shift [2]: >26.2 nM
IC50 [2, 4]: 2.6 nM

B5: 26D5-295-D07-mAb: human IgG1f/kappa mAb; VH SEQ ID NO: 75, VL SEQ ID NO: 88 (antibody, V domains shown)
VH: B2 VH with T28Q, S31E, E56R, F58Y
VL: B2 VL
Kd [1, 3]: 1 nM
Ka ([1]; apparent): 800000 M⁻¹ s⁻¹
Kd ([1]; apparent): 0.00081 s⁻¹

B7: 26D5-296-F08-mAb: human IgG1f/kappa mAb; VH SEQ ID NO: 73, VL SEQ ID NO: 95 (antibody, V domains shown)
VH: B2 VH with S53P, F58Y
VL: B2 VL with G28Y, S30E
Kd [1, 3]: 0.68 nM
Ka ([1]; apparent): 870000 M⁻¹ s⁻¹
Kd ([1]; apparent): 0.0006 s⁻¹

B9: 26D5-296-G03-mAb: human IgG1f/kappa mAb; VH SEQ ID NO: 72, VL SEQ ID NO: 88 (antibody, V domains shown)
VH: B2 VH with T28Q, S53P, E56R, F58Y, G98A
VL: B2 VL
Kd [1, 3]: 0.61 nM
Ka ([1]; apparent): 940000 M⁻¹ s⁻¹
Kd ([1]; apparent): 0.00058 s⁻¹

B12: P1-074468-1: first round optimization progeny Fab; VH SEQ ID NO: 62, VL SEQ ID NO: 88 (antibody, V domains shown)
VH: B2 VH with T28Q, Y33A, S53P, E56R, F58Y
VL: B2 VL
IC50 ([2]; 24 hr, read-out: T24 hr IC50): > 38.2 nM
IC50 ([2]; 48 hr, read-out: T48 hr IC50): > 43.1 nM
T24 hr IC50 shift [2]: >36.0 nM
IC50 [2, 4]: 2.2 nM

B14: 26D5-296-C07-mAb: human IgG1f/kappa mAb; VH SEQ ID NO: 77, VL SEQ ID NO: 94 (antibody, V domains shown)
VH: B2 VH with F27I, E56R, F58Y
VL: B2 VL with G28Y
Kd [1, 3]: 1.4 nM
Ka ([1]; apparent): 950000 M⁻¹ s⁻¹
Kd ([1]; apparent): 0.0014 s⁻¹

Second part, led by results:

Kd [1, 3]: < 0.1 nM
Kd ([1]; apparent): <0.00041 s⁻¹
IC50 ([2]; 24 hr, read-out: T24 hr IC50): 2.2 nM
IC50 ([2]; 48 hr, read-out: T48 hr IC50): 2.3 nM
IC50 [2, 4]: 1.2 nM
B1: 26D5-75768-348-A10-mAb: human IgG1f/kappa mAb; VH SEQ ID NO: 56, VL SEQ ID NO: 89 (antibody, V domains shown)
VH: B2 VH with Y33A, M34V, W36I, S49A, F50Y, S53P, E56R, F58Y, A96T, R97I
VL: B2 VL with L33N, A34Q, A50Y, A91G, S93E
Ka ([1]; apparent): 3.8e+06 M⁻¹ s⁻¹
T24 hr IC50 shift [2]: 1.0 nM
T48 hr IC50 shift [2]: 1.1 nM

Kd [1, 3]: < 0.07 nM
Kd ([1]; apparent): <5e-05 s⁻¹
IC50 ([2]; 24 hr, read-out: T24 hr IC50): 2.4 nM
IC50 ([2]; 48 hr, read-out: T48 hr IC50): 2.5 nM
IC50 [2, 4]: 1.3 nM
B3: 26D5-75229-343-A10-mAb: human IgG1f/kappa mAb; VH SEQ ID NO: 52, VL SEQ ID NO: 84 (antibody, V domains shown)
VH: B2 VH with Y33A, F50Y, S53P, E56R, F58Y, G98A, G103P
VL: B2 VL with S93Q
Ka ([1]; apparent): 770000 M⁻¹ s⁻¹
T24 hr IC50 shift [2]: 1.1 nM
T48 hr IC50 shift [2]: 1.1 nM

Kd [1, 3]: 0.59 nM
Kd ([1]; apparent): 0.00045 s⁻¹
B6: 26D5-296-D08-mAb: human IgG1f/kappa mAb; VH SEQ ID NO: 69, VL SEQ ID NO: 95 (antibody, V domains shown)
VH: B2 VH with S53P, E56R, F58Y
VL: B2 VL with G28Y, S30E
Ka ([1]; apparent): 770000 M⁻¹ s⁻¹

Kd [1, 3]: 0.58 nM
Kd ([1]; apparent): 0.00059 s⁻¹
B8: 26D5-295-A08-mAb: human IgG1f/kappa mAb; VH SEQ ID NO: 74, VL SEQ ID NO: 88 (antibody, V domains shown)
VH: B2 VH with S31E, S53P, E56R, F58Y, G98A
VL: B2 VL
Ka ([1]; apparent): 1e+06 M⁻¹ s⁻¹

Kd [1, 3]: 0.58 nM
Kd ([1]; apparent): 0.00044 s⁻¹
B10: 26D5-296-F07-mAb: human IgG1f/kappa mAb; VH SEQ ID NO: 71, VL SEQ ID NO: 94 (antibody, V domains shown)
VH: B2 VH with E56R, F58Y, G98A
VL: B2 VL with G28Y
Ka ([1]; apparent): 760000 M⁻¹ s⁻¹

Kd [1, 3]: 0.49 nM
Kd ([1]; apparent): 0.00039 s⁻¹
B11: 26D5-296-G08-mAb: human IgG1f/kappa mAb; VH SEQ ID NO: 70, VL SEQ ID NO: 95 (antibody, V domains shown)
VH: B2 VH with T28Q, E56R, F58Y, G98A
VL: B2 VL with G28Y, S30E
Ka ([1]; apparent): 800000 M⁻¹ s⁻¹

Kd [1, 3]: 0.54 nM
Kd ([1]; apparent): 0.00039 s⁻¹
B13: 26D5-296-F03-mAb: human IgG1f/kappa mAb; VH SEQ ID NO: 70, VL SEQ ID NO: 88 (antibody, V domains shown)
VH: B2 VH with T28Q, E56R, F58Y, G98A
VL: B2 VL
Ka ([1]; apparent): 720000 M⁻¹ s⁻¹
